Results: IntAct's records for PubMed 35512704

B1: Mothers against decapentaplegic homolog 4 (Homo sapiens), Q13485 (parent)
chain: MDNMSITNTPTSNDACLSIVHSLMCHRQGGESETFAKRAIESLVKKLKEKKDELDSLITAITTNGAHPSKCVTIQRTLDGRLQVAGRKGFPHVIYARLWRWPDLHKNELKHVKYCQYAFDLKCDSVCVNPYHYERVVSPGIDLSGLTLQSNAPSSMMVKDEYVHDFEGQPSLSTEGHSIQTIQHPPSNRASTETYSTPALLAPSESNATSTANFPNIPVASTSQPASILGGSHSEGLLQIASGPQPGQQQNGFTGQPATYHHNSTTTWTGSRTAPYTPNLPHHQNGHLQHHPPMPPHPGHYWPVHNELAFQPPISNHPAPEYWCSIAYFEMDVQVGETFKVPSSCPIVTVDGYVDPSGGDRFCLGQLSNVHRTEAIERARLHIGKGVQLECKGEGDVWVRCLSDHAVFVQSYYLDREAGRAPGDAVHKIYPSAYIKVFDLRQCHRQMQQQAATAQAAAAAQAAAVAGNIPGPGSVGGIAPAISLSAAAGIGVDDLRRLCILRMSFVKGWGPDYPRQSIKETPCWIEIHLHRALQLLDEVLHTMPIADPQPLD
partner: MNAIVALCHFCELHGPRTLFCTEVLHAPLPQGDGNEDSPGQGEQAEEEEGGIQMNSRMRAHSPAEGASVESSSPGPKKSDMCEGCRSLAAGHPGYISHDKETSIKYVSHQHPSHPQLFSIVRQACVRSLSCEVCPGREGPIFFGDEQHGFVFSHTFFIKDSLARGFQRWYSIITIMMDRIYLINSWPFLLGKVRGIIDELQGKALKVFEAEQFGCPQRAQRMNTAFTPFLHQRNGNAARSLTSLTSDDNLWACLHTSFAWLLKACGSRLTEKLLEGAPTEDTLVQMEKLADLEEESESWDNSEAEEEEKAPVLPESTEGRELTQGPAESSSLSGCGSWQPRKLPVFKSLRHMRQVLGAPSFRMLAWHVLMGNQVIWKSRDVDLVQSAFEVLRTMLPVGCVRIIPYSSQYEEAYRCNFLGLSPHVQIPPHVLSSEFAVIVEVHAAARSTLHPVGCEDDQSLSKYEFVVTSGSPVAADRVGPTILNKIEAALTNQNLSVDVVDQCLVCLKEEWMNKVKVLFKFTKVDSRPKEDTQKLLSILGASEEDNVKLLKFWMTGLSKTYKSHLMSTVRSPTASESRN
B2: Mothers against decapentaplegic homolog 4 (Homo sapiens), Q13485 (parent)
chain: B1 chain
partner: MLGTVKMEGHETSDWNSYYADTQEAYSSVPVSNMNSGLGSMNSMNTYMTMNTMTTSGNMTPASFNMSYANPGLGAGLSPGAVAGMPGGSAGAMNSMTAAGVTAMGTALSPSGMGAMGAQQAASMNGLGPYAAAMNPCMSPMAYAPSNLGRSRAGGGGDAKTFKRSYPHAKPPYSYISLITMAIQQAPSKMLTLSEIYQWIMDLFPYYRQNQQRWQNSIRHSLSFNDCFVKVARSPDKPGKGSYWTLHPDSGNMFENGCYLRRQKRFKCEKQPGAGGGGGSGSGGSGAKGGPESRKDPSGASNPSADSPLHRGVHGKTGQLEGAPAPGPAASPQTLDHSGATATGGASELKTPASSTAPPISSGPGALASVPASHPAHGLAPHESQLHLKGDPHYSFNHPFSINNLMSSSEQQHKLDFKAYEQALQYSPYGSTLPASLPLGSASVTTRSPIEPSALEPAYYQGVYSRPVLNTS
B3: Mothers against decapentaplegic homolog 4 (Homo sapiens), Q13485 (parent)
chain: B1 chain
partner: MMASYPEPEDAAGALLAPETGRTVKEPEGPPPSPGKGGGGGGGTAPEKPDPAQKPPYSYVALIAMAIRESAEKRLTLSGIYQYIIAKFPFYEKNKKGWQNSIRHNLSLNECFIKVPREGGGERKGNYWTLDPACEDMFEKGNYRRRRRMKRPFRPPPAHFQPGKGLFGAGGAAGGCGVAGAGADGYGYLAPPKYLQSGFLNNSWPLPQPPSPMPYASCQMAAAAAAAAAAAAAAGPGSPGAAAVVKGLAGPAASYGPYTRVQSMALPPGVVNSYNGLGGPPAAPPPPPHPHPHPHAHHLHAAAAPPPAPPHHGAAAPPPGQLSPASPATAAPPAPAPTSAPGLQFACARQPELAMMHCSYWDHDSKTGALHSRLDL
B4: Mothers against decapentaplegic homolog 4 (Homo sapiens), Q13485 (parent)
chain: B1 chain
partner: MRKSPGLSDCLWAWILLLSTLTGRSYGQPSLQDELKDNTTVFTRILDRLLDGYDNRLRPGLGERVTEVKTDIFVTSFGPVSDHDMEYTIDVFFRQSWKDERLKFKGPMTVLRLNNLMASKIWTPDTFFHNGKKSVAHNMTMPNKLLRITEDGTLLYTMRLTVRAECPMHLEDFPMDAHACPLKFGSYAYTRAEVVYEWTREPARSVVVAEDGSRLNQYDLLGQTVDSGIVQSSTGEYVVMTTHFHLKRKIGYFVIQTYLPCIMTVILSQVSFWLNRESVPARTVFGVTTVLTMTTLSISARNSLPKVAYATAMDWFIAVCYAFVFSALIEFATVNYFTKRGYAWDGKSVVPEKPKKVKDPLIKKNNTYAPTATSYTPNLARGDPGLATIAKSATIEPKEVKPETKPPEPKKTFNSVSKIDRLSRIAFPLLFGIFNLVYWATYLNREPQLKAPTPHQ

Variants of: B1
Conditions: with flcn_human FLCN

| effect of a mutation on the interaction | Variant |
| --- | --- |
| with no effect | R361H |

Variants of: B2
Conditions: with foxa1_human FOXA1, P55317

| effect of a mutation on the interaction | Variant |
| --- | --- |
| with no effect | D351H |

Variants of: B2
Conditions: with foxa1_human FOXA1, P55317
Remark: another data set of the same source

| effect of a mutation on the interaction | Variant |
| --- | --- |
| with no effect | G386D |

Variants of: B2
Conditions: with foxa1_human FOXA1, P55317
Remark: another data set of the same source

| effect of a mutation on the interaction | Variant |
| --- | --- |
| with no effect | R361C |

Variants of: B2
Conditions: with foxa1_human FOXA1, P55317
Remark: another data set of the same source

| effect of a mutation on the interaction | Variant |
| --- | --- |
| with no effect | R361H |

Variants of: B3
Conditions: with foxl2_human FOXL2, P58012

| effect of a mutation on the interaction | Variant |
| --- | --- |
| with no effect | D351H |

Variants of: B3
Conditions: with foxl2_human FOXL2, P58012
Remark: another data set of the same source

| effect of a mutation on the interaction | Variant |
| --- | --- |
| with no effect | G386D |

Variants of: B3
Conditions: with foxl2_human FOXL2, P58012
Remark: another data set of the same source

| effect of a mutation on the interaction | Variant |
| --- | --- |
| with no effect | R361C |

Variants of: B3
Conditions: with foxl2_human FOXL2, P58012
Remark: another data set of the same source

| effect of a mutation on the interaction | Variant |
| --- | --- |
| with no effect | R361H |

Variants of: B4
Conditions: with gbra1_human GABRA1, P14867

| effect of a mutation on the interaction | Variant |
| --- | --- |
| with no effect | D351H |

Variants of: B4
Conditions: with gbra1_human GABRA1, P14867
Remark: another data set of the same source

| effect of a mutation on the interaction | Variant |
| --- | --- |
| with no effect | G386D |

Variants of: B4
Conditions: with gbra1_human GABRA1, P14867
Remark: another data set of the same source

| effect of a mutation on the interaction | Variant |
| --- | --- |
| with no effect | R361C |
